Among the data in publication PMC3514331, “Structure-function analysis of Methanobacterium thermoautotrophicum RNA ligase – engineering a thermostable ATP independent enzyme” (BMC Molecular Biology, 2012) are Km values, retold here.

Residue numbers refer to the chain shown, from its start. Numbers in names are those of the source.

Substrate in this data set: Nc1ncnc2c1ncn2[C@@H]1O[C@H](COP(=O)(O)OP(=O)(O)OP(=O)(O)O)[C@@H](O)[C@H]1O
Briefly: purified protein. The format is biochemical, Methanothermobacter thermautotrophicus. The settings on record: 10 mM Mg2+, 30 min, covalent enzyme-AMP formation, labelled compound.

One may read the Km as the substrate concentration at which the rate is half of its maximum.

B1: MthRnl (Methanobacterium thermoautotrophicum RNA ligase) (Methanothermobacter thermautotrophicus str. Delta H) (protein)
chain: MNSMNSDIPFDLIQERTGVPSSRLKVAFARGSLRLLESAGMQALLFKKPLGDLEAGTVIYLGDETEVIRGFPKIRRTLLLSPTIQEHFRDRVAVEEKMNGYNVRIACLSSGETVALTRGGHVCPFTTRKAQELLDLSEFFREHPDLVICGEMIGRDNPYVSQDYPEVGPLGFRVFDLREKNTNRPLPVEERRALLDSYGLPNVRLFGVYPIEEAASEVADIIRALGMAGREGVVMKDPSMEVPPLKYTSSQAHARELAYAFSYPFDFGRPFFFSRVIREGFQAYELDESDDETRERARRLGEAIIYPMLERIKSISAGEAAYEDTVIDVEDREAAEEFIRHLVRLGVSATLADYRDGRATIRRFYQSTTDRINNYLKGGLY
notes: full-length codon-optimized ORF, N-terminal His10 tag (pET16b), expressed in E. coli, tag cleavage not mentioned; homodimer, about 46 kDa per monomer (10 pmol = 460 ng)
Take B1: where the note is “10 mM bis-Tris propane pH 7.0, 65°C”, the Michaelis constant (Km) came out at 0.9 µM.

B2: MthRnl (Methanobacterium thermoautotrophicum RNA ligase) (Methanothermobacter thermautotrophicus str. Delta H; K246A) (protein)
chain: B1 chain with K246A
notes: as for B1
On to B2, for which, where the note is “10 mM bis-Tris propane pH 8.5, 65°C”, the Km was determined as 60 µM.
